In the nanobody polyreactivity screen of Harvey et al. (2022):

Assay: yeast display, Sf9 membrane polyspecificity reagent, FACS + sequencing; frameworks hold sequencing errors
How it was run: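 Sorting gates, low and high (top ~1%), were placed on anti-HA fluorescence to track expression and on streptavidin fluorescence to track reagent binding. A clone's polyreactivity label is taken from the gate it came out of. The reagent was 10% biotinylated, detergent-solubilized Sf9 membrane, applied for 1 hour at 4 °C to galactose-induced yeast display cells.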

| Sequence | polyreactivity (PSR sort gate) |
| --- | --- |
| QVQLVESGGGLLQAGGSLRLSCAASGRTYVWNAMGWSRQAPGKERELVAGISWRGGSTYYADSVKGRFRISRDNAKNTVYLQKNSLKPEDTAVYYFAASARFVTYKMYYWGQGTQVTVSS | high polyreactivity |
| QVQLVESGGGLLQAGGSLRLSCAASGSIFRLNAMGWYRQAPGKERELVATINYSGDSTYYADSVKGRFTISRDNAKNTVYLQMNSLKPEDTAVYFCATDYGWYDYWGQGTQVTVSS | low polyreactivity |
| QVQLVESGGGLLQAGGSLRLSCAASGSIFRYYAMGWYRQAPGKERELVATISTGGRTYYADSVKGRFTISRDNAKNTVYLQMNSLKPEVTAVYYCAAVRLTWTAKYNYWGQGTQVTVSS | high polyreactivity |
| QVQLVESGGGLLQAGGSLRLSCAASGSIFYRYAMGWYRQAPWKERELVAAISRSGASTYYADSVKGRFTISRDNAKNTVYLQMNSLKPEDTAVYYCAAYFATSRLPVRYDYWGQGTQVTVSS | high polyreactivity |
| QVQLVESGGGLLQAGGSLRLSCAASGSILYWNAMGWYRQAPGKERELVAAITGSGGSTSYADSVKGRFTISRDNAKNTVYLQMNSLKPEDTAVYYCAALQFPTPLLLYDSWGQGTQVTVSS | low polyreactivity |
| QVQLVESGGGLLQAGGSLRLSCAASGSTFKGYAMGWYRQAPGKERELVAAISWSAGSTYYADSVKGRFTISRDNAKNTVYLQMNSLKPEDTAVYYCAKASVALRYYSYSLGRDYWGQGTQVTVSS | low polyreactivity |
| QVQLVESGGGLLQAGGSLRLSCAASGSTFQWYAMGWYRQAPGKERELVAGITRTGSTYYADSVKGRFTISRDNAKNTVYLQMNSLKPEDTAVYYCAAKWHTASGKYYYWGQGTQVTVSS | high polyreactivity |
| QVQLVESGGGLLQAGGSLRLSCAASGSTYFGNAMGWDRQAPGKERELVAAITSGGSTNYADSVKGRFTISRDNAKNTVYLQMNSLKPEDTAVYYCAKPSRWGWTGFYAYDYWGQGTQVTVSS | low polyreactivity |
| QVQLVESGGGLLQAGGSLRLSCAASGVIFSWYAMGWYRQAPGKERELVAAINWSGDSTYYADSVKGRFTISRDNAKNTVYLQMNSLKPEDTAVYYCAADPSYWGDPYDYWGQGTQVTVSS | high polyreactivity |
| QVQLVESGGGLLQAGGSLRLSCAASVNIFWRYRMGWYRQAPGKERELVAAIRRSGGTTYYADSVKGRFTISRDNAKNTVYFQMNSLKPEDTAVYNCAAGLTVRKFVRFDYWGHGTQVTVSS | low polyreactivity |
| QVQLVESGGGLLQAGGSLRLSCASSGITFGDNVMGWYRQAPGKERELVAAISRIGDDTYYADSVKGRFTISRDNAKNTVFFQMNSLKPEDTAVYYCATDFTQRDYYNYGYWGQRTQVTVSS | low polyreactivity |
| QVQLVESGGGLLQAGGSLRLSCASSGSTFYTNDMGWYRPAPGKERELVAAITSAGNTNYADSVKGRFTISRDNAKNTVYLQMNSLKPEDTAVYYYYYYQYDYWGQGTQVTVSS | low polyreactivity |
| QVQLVESGGGLLQAGGTLRLSCAASGITFWSYAMGWYRQAPGKERELVAAITIGGTTYYADSVKGRFTSSRDNAKNTVYLQMNSRKPEDTAVYYCAVDSTDQAPPTYDYWGQGTQVTVSS | low polyreactivity |
| QVQLVESGGGLVEAAGSLRLSCAASGRILCGNTMGWYRQATGKERELFAAISWNGGGTYYADSVKGRFTISRDTAKNNVYLQMNSLTPEDTAVYYCATRYTYSTDTGYDYWGQGTQVTVSS | low polyreactivity |
| QVQLVESGGGLVEAGGSLRLICAAAGSNFSYYAMGWYRQAPGKERELVAAISWNGGRTYYADSVKGRFTISRDNAKYSVYLQMNSLKPEDTAVYYCAARSSYKFYYWGQRTQVTVSS | high polyreactivity |
| QVQLVESGGGLVEAGGSLRLSCAASGIIFYGYDMGWYREAPGKERELVAGITVSGGTYYADSVKGRFTISRDNAKNTVYLQMNSLKPEDTAVYYSARDQWPYVHGKYAYWGQGTQVTVSS | low polyreactivity |
| QVQLVESGGGLVEAGGSLRLSCAASGRIFCYNAMGWYRQAPGKERELVAAIRSGGRTHYADSVKGRFTISRDNAKNTVTLQMNSLKPEDTAVYYCAARSVPYPYRRNPYDYWGQGTQVTVSS | high polyreactivity |
| QVQLVESGGGLVEAGGSLRLSCAASGRIFTGYAMGWYRQAPGKERELVAAISDGGSTNYADSVKGRFTISRDNAKNTVYLQMNSLKPEDTAVYYCAADGHSSDQYDYWGPGTQVTVSS | low polyreactivity |
| QVQLVESGGGLVEAGGSLRLSCAASGSIFRINAMGWYRQAPGKERELVAAISTLSGRTYYADSVKGRFTISRDNAKITVYLQMNSLKPEDTAVYYCAVGQARAGLIGGYWGQGTQVTVSS | high polyreactivity |
| QVQLVESGGGLVEAGGSLRLTCAASGYIIGGNAMGWYRQAPGKERELVAVISSRGGRTYYSDSVKGRFTISRDNAKNTVYLQLNSLKPEDTEVYYCYRVFSYQYKRDYWGQGTQVTVSS | high polyreactivity |
| QVQLVESGGGLVEAGGSLSLTCAASGRPFQYYAMRWYRPAPGKEREFVAAITRTGARTYYAVSVKGRFTISRDNAKNTVYLQMNSLKPEATAVYYCAKSLTFYSWRDYGYWGQGTQVTVSS | high polyreactivity |
| QVQLVESGGGLVHAGCSLRLSCAASGNIFYAYAMGWYRQAPGKERELVAAISWSGDSTYYADSVKGRFTISRDNAKNTVYLQMNSLKPEDTAVYYCAARKVTYHYQWMDYWGQGSQVTVSS | low polyreactivity |

| Sequence | polyreactivity (PSR sort gate) |
| --- | --- |
| QVQLVESGGGLVHAGCSLRLSCAASGSTYVPYAMGWYRQAPGRERELVADISWSGGSTYYADSVKGRFTISRDNGKNTVFLQMNSLKPEDTAVYYCAATRTKGKFDYWGQGTQVTVSS | high polyreactivity |
| QVQLVESGGGLVHAGGCLRISCAASGRIFWYNEMGWYRQATGKERELVADITPRGTRTHYADSVKGRFTISRDNAKNTVYLQMNSLKPEDPGVYYCAKGWYTVDWDAPVFSERGEYWGQGSQVTVSS | low polyreactivity |
| QVQLVESGGGLVHAGGILRLSCAASGFIFWSYAKGWYRQAPGKERELFAAIDLSGGSTYYADSVKGRFTISRDNAKNTVYLQLNSLKPEDTAVYYCNADGDTYAFTNSDSGFDYWGQGTQVTVSS | low polyreactivity |
| QVQLVESGGGLVHAGGILRLSSPASGSTIRYYAMGWYRQAPGKESQLVAVISTSGNTYYADSVKGRFTISRDNAKNTVYLQMNSLKPEDTAVYYCAARGVGGQISQEYDYWGQGTQVTVSS | low polyreactivity |
| QVQLVESGGGLVHAGGRLRLSCAASGRIFFYYAMGWYRQAPGKERELVAAISQSGGSTYYADSVKGRFTISRDNAKNTVYLQMNSLKPEDTSVYYCNAADPYYVTSAVAGDYWGQGTQVTVSS | low polyreactivity |
| QVQLVESGGGLVHAGGRLRLSCTASGGIFRYYAMGWYRQAPGKERELVAGISRSGGSTHYADSVKGRFTISRDNAKNTVYLQMNSLKPEDTAVYYCAADTYFTKYDYWGQGTQVTVSS | high polyreactivity |
| QVQLVESGGGLVHAGGSHRLSCAASGFTFTFYAMGWYRQAPVKERELVAAIRTSDGRTYYADSVKGRFTISRDNAKNTVYLQMNSLKPEDTAVYYCAAQVYRPRARYYEYDYWGQGTQVTVSS | high polyreactivity |
| QVQLVESGGGLVHAGGSHRLSCAASGSIFDVNAMGWYRPPRGKERELFAAITGTGGSTYYADSVKGRFTISRDNAKNSVYLQMYSLKPDDTSVYDCATVTGVRKYGYWGQGTQVTVSS | high polyreactivity |
| QVQLVESGGGLVHAGGSHRLSCAASGSIFPYYTMGWYRQAPGKEREMVAAISGSGTSTYYADSVKGRFTISRDNAKNTVYLQMNSLKPEDTAVYYCAADFRYYVTSLKYDYWGQGTQVTVSS | low polyreactivity |
| QVQLVESGGGLVHAGGSLLLSCAASGRTLGWYAMGWYIQAPGKERELVATISITGGSTYYAVSVKGRFTISRDYAKNTVYLQMNSLKPEDTAVYYCAARHGSRRRYYYWGQGTQVTVSS | high polyreactivity |
| QVQLVESGGGLVHAGGSLRISCAASGRIFYKYAMAWYRQAPGKERELVAAISTRGGSTYYADSVKWRFTISRDIAKNTVYSQMNSLKPEDTAVYYCAALSAYGYDYCGQGTQVTVSS | high polyreactivity |
| QVQLVESGGGLVHAGGSLRISCAASGRTFLPYTMGGYRQAHGSERELVADITTSDGSTYYADSVKGRFTISRDYAKNTVYLQMNSLKPEDTAVFYCAAESPWFWAVFDYWGQGTQVTVSS | high polyreactivity |
| QVQLVESGGGLVHAGGSLRISCAASGRTFQRNAMGWYRQAPGKERELVAAISGGGSTYYADSVKGRFTISRDNAKNTVYLQMNSLKPEDTAVYYCAASSATRLYYFSRGYDYWGQGTQVTVSS | low polyreactivity |
| QVQLVESGGGLVHAGGSLRLSCAASGFIFKFYAMGWYRQAPGKERELVAAISKSGGRTYYADSVKGRFTISRDNAKNTVYLQMNSLKPEDTAVYYCNAPSVGAAFDYWGQGTQVTVSS | high polyreactivity |
| QVQLVESGGGLVHAGGSLRLSCAASGFIFKRYTMGWYRQAPGKERELVATINWNGGNTYYADSVKGRFTISRDNAKNTVYLQMNSVKQDDTAVYYCAATRYVTYGSWGQGTQVTVSS | high polyreactivity |
| QVQLVESGGGLVHAGGSLRLSCAASGFIFSSYAMGWYRPAPGKERELVAAITSRGGSTYYADSVKGRYTISRDNAKNTVYLQMNSLKPEDTAVYYCAADQGVPSTYDYWGQGTQVTVSS | low polyreactivity |
| QVQLVESGGGLVHAGGSLRLSCAASGFIFSYNARGWYRQAPGKERELVASISRADSTNYADSVKGRFTISRDNAKNTVYLQMNSLKPEDTAVYYCAAAYWPVVWFYYWGQGTQVTVSS | low polyreactivity |
| QVQLVESGGGLVHAGGSLRLSCAASGFIFYQYAMGWYRQAPGQERELVAAISKSGGNTNYADSVKGRFTISRDNAKNTVYLQMNSLKPEDTAVYYCAADRGQRGLYYWGQGTQVTVSS | high polyreactivity |
| QVQLVESGGGLVHAGGSLRLSCAASGFILSANDMGWYRQAPGQERELVADIDSSGRTNYADSVKGRFTISRDNAKNTVYLQMISLKPEDTAVYYCATPPDDKGGGYLGFDYWGQGTQVTVSS | low polyreactivity |
| QVQLVESGGGLVHAGGSLRLSCAASGFTFPNYAMGWYRQAPGKERSLVAAITSGGGRTNYADSVKGRFTISRDNAKNTVYLQMISLKPEDTAVYYCAKTRVRGSEFGYWGQGTQVTVSS | low polyreactivity |
| QVQLVESGGGLVHAGGSLRLSCAASGFTFSFYAMGWYRQAPGKERELVATITGSGVRTYYADSVKGRFTISRDNAKNTVYLQMNSLKPEDTAVYYCNRQGFTHRGYYWGQGTQVTVSS | high polyreactivity |
